Measurements: PMC9984425, “An autoimmune pleiotropic SNP modulates IRF5 alternative promoter usage through ZBTB3-mediated chromatin looping”

Molecular target: ZBTB3 recombinant protein (UniProt Q9H5J0 1-574)
Assay: EMSA; 10 ng recombinant protein; EMSA: 20 nM biotin probe, 100 mM Tris pH 7.5, 55 mM KCl, 2.5 mM MgCl2, 1 mM DTT, 500 ng poly(dI-dC), 5% glycerol, 0.05% NP-40, 20 ul, room temperature 20 min; 500x unlabeled competitor; 6% native PAGE, 0.5x TBE
Details: protein: commercial; chain copies: 2; label: 5' biotin on strand 1; blunt

ZBTB3 recombinant protein, sequence (Q9H5J0 whole entry): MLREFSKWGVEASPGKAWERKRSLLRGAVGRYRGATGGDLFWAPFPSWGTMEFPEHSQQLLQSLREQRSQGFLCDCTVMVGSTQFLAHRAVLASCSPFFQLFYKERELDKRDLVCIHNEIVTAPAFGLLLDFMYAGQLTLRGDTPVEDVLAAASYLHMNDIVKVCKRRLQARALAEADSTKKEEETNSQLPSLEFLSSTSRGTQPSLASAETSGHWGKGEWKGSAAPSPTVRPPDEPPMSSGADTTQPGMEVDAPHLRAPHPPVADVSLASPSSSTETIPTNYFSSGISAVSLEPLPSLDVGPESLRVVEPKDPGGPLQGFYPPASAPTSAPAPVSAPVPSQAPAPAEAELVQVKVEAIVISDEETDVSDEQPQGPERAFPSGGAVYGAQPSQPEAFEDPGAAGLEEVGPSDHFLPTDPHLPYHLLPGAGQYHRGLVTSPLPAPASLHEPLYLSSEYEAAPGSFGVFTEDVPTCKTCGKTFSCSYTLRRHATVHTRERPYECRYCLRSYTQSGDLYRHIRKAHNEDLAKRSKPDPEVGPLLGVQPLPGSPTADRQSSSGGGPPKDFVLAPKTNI

Binder	binding result
IRF5-promoter (dsDNA) DNA 1: CCGGGAGCCCCGCTGGAGGCTGGCTTGGA DNA 2: TCCAAGCCAGCCTCCAGCGGGGCTCCCGG	binds
rs4728142-A (dsDNA) DNA 1: CCAAAAAGCTCTGAGCCAGTGTTAGTAAGAAATGG DNA 2: CCATTTCTTACTAACACTGGCTCAGAGCTTTTTGG	binds
